± gives the uncertainty stated by the source.
Test: self-splicing fitness, log relative to wild type (ln ratio); higher = more splicing; Tetrahymena group I intron in knt gene, E. coli kanamycin selection, DiMSum; sequences stand for … in CUCUCU…GGAGGGAAAAGUUAUCAGGCAUGCACCUGGUAGCUAGUCUUUAAACCAAUAGAUUGCAUCGGUUUAAAAGGCAAGACCGUCAAAUUGCGGGAAAGGGGUCAACAGCCGUUCAGUACCAAGUCUCAGGGGAAACUUUGAGAUGGCCUUGCAAAGGGUAUGGUAAUAAGCUGACGGACAUGGUCCUAACCACGCAGCCAAGUCCUAAGUCAACAGAUCUUCUGUUGAUAUGGAUGCAGUUCACAGACUAAAUGUCGGUCGGGGAAGAUGUAUUCUUCUCAUAAGAUAUAGUCGGACCUCUCCUUAAUGGGAGCUAGCGGAUGAAGUGAUGCAACACUGGAGCCGCUGGGAACUAAUUUGUAUGCGAAAGUAUAUUGAUUAGUUUUGGAGUACUCGUGGUCG
Method in brief: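 Colonies from six replicate transformations of E. coli BL21(DE3) were pooled and amplicon-sequenced on an Illumina HiSeq 2500. The library placed an intron with all eight P1ex-region nucleotides randomised inside the knt kanamycin-resistance gene on pET-22b(+), and cells grew overnight at 37°C or 30°C on LB agar with or without 25 μg/mL kanamycin (plus 100 μg/mL carbenicillin, 50 μM IPTG, 0.2% rhamnose). Fitness is the DiMSum error-weighted combination of wild-type-normalised replicate fold changes, kanamycin versus none.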

| Sequence | self-splicing fitness (ln) (30 °C) | self-splicing fitness (ln) (37 °C) |
| --- | --- | --- |
| UCUGAGCAAUAUUACGUUUA | -2.83 ± 0.17 | -2.65 ± 0.19 |
| UCUGAGCAAUAUUACGUUUC | -2.44 ± 0.22 | -0.767 ± 0.21 |
| UCUUAGCAAUAUUACGAAUA | -3.59 ± 0.47 | -0.936 ± 0.17 |
| UCUUAGCAAUAUUACGAAUU | – | -2.06 ± 0.24 |
| UCUUAGCAAUAUUACGAGAA | -2.37 ± 0.47 | – |
| UCUUAGCAAUAUUACGAGUG | -0.964 ± 0.065 | -0.162 ± 0.097 |
| UCUUAGCAAUAUUACGAUUC | -2.05 ± 0.44 | – |
| UCUUAGCAAUAUUACGCACA | -1.04 ± 0.22 | -0.879 ± 0.23 |
| UCUUAGCAAUAUUACGCAGG | -3.45 ± 0.43 | -1.75 ± 0.38 |
| UCUUAGCAAUAUUACGCAUA | -2.4 ± 0.26 | -1.47 ± 0.22 |
| UCUUAGCAAUAUUACGCGCA | -0.966 ± 0.29 | -1.53 ± 0.23 |
| UCUUAGCAAUAUUACGGAUU | -2.71 ± 0.41 | -2.22 ± 0.21 |
| UCUUAGCAAUAUUACGGUUG | -3.34 ± 0.32 | -2.18 ± 0.43 |
| UCUUAGCAAUAUUACGUAAG | -0.27 ± 0.09 | -0.314 ± 0.13 |
| UCUUAGCAAUAUUACGUAUA | – | -3.28 ± 0.3 |
| UCUUAGCAAUAUUACGUCAA | -2.43 ± 0.25 | -2.6 ± 0.44 |
| UCUUAGCAAUAUUACGUGAG | -0.751 ± 0.079 | -0.366 ± 0.14 |
| UCUUAGCAAUAUUACGUGCG | -2.14 ± 0.15 | -1.67 ± 0.2 |
| UCUUAGCAAUAUUACGUUGU | -3.61 ± 0.19 | -1.24 ± 0.14 |
| UCUUAGCAAUAUUACGUUUA | -2.75 ± 0.33 | -2.57 ± 0.32 |
| UCUUAGCAAUAUUACGUUUU | – | -1.8 ± 0.23 |
| UGAAAGCAAUAUUACGACUG | 0.192 ± 0.1 | 0.249 ± 0.12 |
| UGAAAGCAAUAUUACGAGCU | -1.42 ± 0.14 | -0.746 ± 0.17 |
| UGAAAGCAAUAUUACGAGUG | -0.522 ± 0.069 | 0.0623 ± 0.11 |
| UGAAAGCAAUAUUACGAUCU | -0.256 ± 0.083 | 0.425 ± 0.11 |

| Sequence | self-splicing fitness (ln) (30 °C) | self-splicing fitness (ln) (37 °C) |
| --- | --- | --- |
| UGAAAGCAAUAUUACGAUUA | -0.302 ± 0.065 | 0.211 ± 0.096 |
| UGAAAGCAAUAUUACGCAAG | -2.4 ± 0.15 | -2 ± 0.2 |
| UGAAAGCAAUAUUACGCACA | -0.903 ± 0.15 | 0.683 ± 0.15 |
| UGAAAGCAAUAUUACGCCAG | -0.985 ± 0.12 | -0.807 ± 0.12 |
| UGAAAGCAAUAUUACGCCGU | -2.92 ± 0.29 | -1 ± 0.16 |
| UGAAAGCAAUAUUACGCCUC | -1.85 ± 0.28 | – |
| UGAAAGCAAUAUUACGCGAU | -2.15 ± 0.14 | -2.37 ± 0.19 |
| UGAAAGCAAUAUUACGCUAA | -1 ± 0.12 | -0.805 ± 0.13 |
| UGAAAGCAAUAUUACGCUAG | -1.59 ± 0.15 | 0.503 ± 0.15 |
| UGAAAGCAAUAUUACGGCAU | -1.43 ± 0.076 | -0.236 ± 0.1 |
| UGAAAGCAAUAUUACGGGUU | -4.06 ± 0.27 | -2.06 ± 0.19 |
| UGAAAGCAAUAUUACGGUAA | -1.02 ± 0.085 | -0.765 ± 0.078 |
| UGAAAGCAAUAUUACGUAGA | -1.88 ± 0.097 | -1.56 ± 0.15 |
| UGAAAGCAAUAUUACGUAGG | -0.728 ± 0.095 | -0.459 ± 0.14 |
| UGAAAGCAAUAUUACGUUCC | -1.36 ± 0.11 | -0.98 ± 0.13 |
| UGACAGCAAUAUUACGAAUA | -1.26 ± 0.13 | -0.589 ± 0.14 |
| UGACAGCAAUAUUACGACAC | -0.678 ± 0.12 | -2.04 ± 0.17 |
| UGACAGCAAUAUUACGACCC | -1.52 ± 0.2 | -1.01 ± 0.25 |
| UGACAGCAAUAUUACGACGA | -0.0144 ± 0.099 | 0.355 ± 0.13 |
| UGACAGCAAUAUUACGAGAU | -3.55 ± 0.23 | -2.86 ± 0.26 |
| UGACAGCAAUAUUACGAGCC | -3.37 ± 0.28 | -2.24 ± 0.38 |
| UGACAGCAAUAUUACGAUGA | -0.596 ± 0.068 | -0.119 ± 0.082 |
| UGACAGCAAUAUUACGCUAA | -1.22 ± 0.086 | -0.325 ± 0.093 |
| UGACAGCAAUAUUACGCUAG | -1.37 ± 0.076 | -0.358 ± 0.11 |
| UGACAGCAAUAUUACGCUCA | -0.115 ± 0.11 | -0.155 ± 0.1 |

| Sequence | self-splicing fitness (ln) (30 °C) | self-splicing fitness (ln) (37 °C) |
| --- | --- | --- |
| UGACAGCAAUAUUACGCUUG | -0.879 ± 0.074 | -0.702 ± 0.11 |
| UGACAGCAAUAUUACGGAGC | -4.35 ± 0.39 | -2.91 ± 0.19 |
| UGACAGCAAUAUUACGGAUG | -0.91 ± 0.054 | -0.91 ± 0.075 |
| UGACAGCAAUAUUACGGCCG | -0.739 ± 0.14 | 0.186 ± 0.19 |
| UGACAGCAAUAUUACGGCGG | -0.935 ± 0.053 | 0.0557 ± 0.072 |
| UGACAGCAAUAUUACGGUCG | -3.56 ± 0.26 | -1.58 ± 0.21 |
| UGACAGCAAUAUUACGGUGC | -2.01 ± 0.49 | – |
| UGACAGCAAUAUUACGGUGG | -1.56 ± 0.064 | -0.331 ± 0.082 |
| UGACAGCAAUAUUACGGUUU | -1.07 ± 0.059 | -0.226 ± 0.073 |
| UGACAGCAAUAUUACGUAGG | -1.78 ± 0.079 | -1.31 ± 0.11 |
| UGACAGCAAUAUUACGUCGG | -1.72 ± 0.094 | -0.734 ± 0.11 |
| UGACAGCAAUAUUACGUGGG | -3.76 ± 0.14 | -0.757 ± 0.081 |
| UGACAGCAAUAUUACGUUGA | -1.99 ± 0.094 | -1.9 ± 0.12 |
| UGAGAGCAAUAUUACGAACG | -1.02 ± 0.18 | -1.43 ± 0.33 |
| UGAGAGCAAUAUUACGAAUA | -2.76 ± 0.49 | – |
| UGAGAGCAAUAUUACGAUAC | -3.92 ± 0.46 | -1.91 ± 0.34 |
| UGAGAGCAAUAUUACGAUGC | -2.13 ± 0.39 | -0.477 ± 0.45 |
| UGAGAGCAAUAUUACGCCAC | -2.36 ± 0.31 | -1.1 ± 0.42 |
| UGAGAGCAAUAUUACGCCGC | -3.41 ± 0.23 | -2.5 ± 0.31 |
| UGAGAGCAAUAUUACGCGUC | -2.95 ± 0.38 | -1.37 ± 0.41 |
| UGAGAGCAAUAUUACGGAUG | -3.61 ± 0.19 | -3.56 ± 0.29 |
| UGAGAGCAAUAUUACGGCAG | – | -1.58 ± 0.31 |
| UGAGAGCAAUAUUACGGCUG | -1.5 ± 0.15 | -0.389 ± 0.26 |
| UGAGAGCAAUAUUACGGGGU | – | -2.4 ± 0.48 |
| UGAGAGCAAUAUUACGGUUG | -2.6 ± 0.12 | -2.64 ± 0.19 |

| Sequence | self-splicing fitness (ln) (30 °C) | self-splicing fitness (ln) (37 °C) |
| --- | --- | --- |
| UGAGAGCAAUAUUACGUAUC | -0.611 ± 0.42 | -0.408 ± 0.47 |
| UGAGAGCAAUAUUACGUCAC | -2.08 ± 0.4 | – |
| UGAGAGCAAUAUUACGUGCU | -2.06 ± 0.21 | – |
| UGAGAGCAAUAUUACGUUGA | – | -2.55 ± 0.24 |
| UGAGAGCAAUAUUACGUUGG | – | -3 ± 0.27 |
| UGAUAGCAAUAUUACGAGUU | -3.82 ± 0.24 | -2.73 ± 0.21 |
| UGAUAGCAAUAUUACGAUCC | -0.554 ± 0.12 | 0.433 ± 0.15 |
| UGAUAGCAAUAUUACGAUUC | -2.33 ± 0.24 | -2.41 ± 0.49 |
| UGAUAGCAAUAUUACGCAUG | -1.23 ± 0.078 | -0.48 ± 0.1 |
| UGAUAGCAAUAUUACGCCUU | -3.11 ± 0.31 | -1.32 ± 0.2 |
| UGAUAGCAAUAUUACGCGAA | -2.64 ± 0.44 | -1.49 ± 0.26 |
| UGAUAGCAAUAUUACGCUCC | – | -0.916 ± 0.3 |
| UGAUAGCAAUAUUACGCUGU | -2.61 ± 0.27 | -3.08 ± 0.38 |
| UGAUAGCAAUAUUACGCUUU | -3.56 ± 0.47 | -1.39 ± 0.15 |
| UGAUAGCAAUAUUACGGACU | -1.17 ± 0.099 | 0.214 ± 0.18 |
| UGAUAGCAAUAUUACGGAGC | -3.26 ± 0.24 | -3.25 ± 0.47 |
| UGAUAGCAAUAUUACGGAGG | -2.79 ± 0.26 | -1.56 ± 0.36 |
| UGAUAGCAAUAUUACGGAUU | -2.78 ± 0.23 | -0.278 ± 0.19 |
| UGAUAGCAAUAUUACGGCGC | -2.62 ± 0.22 | -1.18 ± 0.23 |
| UGAUAGCAAUAUUACGGUGG | -2.08 ± 0.15 | -1.53 ± 0.25 |
| UGAUAGCAAUAUUACGUAGU | -4.18 ± 0.31 | -2.38 ± 0.28 |
| UGAUAGCAAUAUUACGUCAG | -1.84 ± 0.1 | -1.03 ± 0.12 |
| UGAUAGCAAUAUUACGUCCG | -0.219 ± 0.11 | -0.0349 ± 0.13 |
| UGAUAGCAAUAUUACGUCGU | -2.06 ± 0.34 | -2.02 ± 0.35 |
| UGAUAGCAAUAUUACGUUCU | -1.68 ± 0.11 | 0.264 ± 0.11 |

Source: the supplement of paper PMC7877785
